Reference: US20240010735A1 (EISAI R AND D MANAGEMENT, published 2024)

B1: mouse anti-EphA4 monoclonal antibody (antibody A) (antibody, mouse IgG1, kappa, V domains shown)
VH: QVQLKQSGPSLVQPSQSLSITCTVSGFSLTRYGVHWVRQSPGKGLEWLGVIWRGGSTDYNAAFMSRLSITKDNSKSQVFFKMNSLQADDTAIYYCAKESLFGVYYDYGYYSMDYWGQGTSVTVSS
VL: DIQMTQSPSSLSASLGERVSLTCRASQEISGYLSWLQQKPDGTIKRLIYAASTLDSGVPKRFSGSRSGSDYSLTISSLESEDFADYYCLQYASYPLTFGAGTKLELKR
notes: purified from hybridoma supernatant
B2: humanized anti-EphA4 monoclonal antibody (antibody B) (antibody, human IgG2, V domains shown)
VH: QVQLVESGGGVVQPGRSLRLSCAVSGFSLTRFGVHWVRQAPGKGLEWVAVIWRGGSTDYNAAFMSRLTISKDNSKNTVYLQMNSLRAEDTAVYYCAKESLFGVYYDYGYYSMDYWGQGTTVTVSS
VL: DIQMTQSPSSLSASVGDRVTITCRASQEISGYLSWLQQKPGKAPKRLIYAASTLDSGVPSRFSGSRSGTEYTLTISSLQPEDFATYYCLQYASYPLTFGGGTKVEIKR
notes: expressed in Expi293F cells; also called humanized antibody of antibody A; HK2-42 / L1-8

Key:
[1] = target: T1, human EphA4 extracellular region-SEAP-His protein (human, UniProt P54764 20-547); assay: competition ELISA; captured human EphA4 extracellular region-SEAP-His, competitor biotinylated human EphrinB3-Fc chimera (2.3 nM)
T1 construct: also called human EphA4 extracellular region-SEAP-His 10; not shown: secretory alkaline phosphatase (SEAP); histidine tag

[2] = target: T2, human EphA4 fibronectin type III domain 2-MBP-His protein (human, UniProt P54764 436-547); assay: ELISA; domain-MBP-His protein captured by anti-6-His antibody
T2 construct: also called fibronectin type III domain 2 (FN2); not shown: histidine tag
Procedure: (§1) Rabbit anti-6-His antibodies (Bethyl Laboratories) were coated onto the wells of a 96-well plate (Nunc). After incubating at 4° C. overnight, the wells were blocked at room temperature for 1 hour by 1% Block Ace (DS Pharma Biomedical). After washing twice with 0.02% Tween 20/PBS (Nacalai Tesque), human EphA4 extracellular region-MBP-His protein, human EphA4 ligand binding domain-MBP-His protein, human EphA4 fibronectin type III domain 1-NBP-His protein, and human EphA4 fibronectin type III domain 2-MBP-His protein (final concentration 10 nM) were seeded into the wells, and incubated at room temperature for 1 hour. After washing 3 times, antibody A (final concentration 10 nM) was supplemented to the wells, and incubated at room temperature for 1 hour. Horseradish peroxidase-labeled goat anti-mouse IgG Fcγ fragment antibody (Jackson ImmunoResearch Laboratories) was added, and incubated at room temperature for 1 hour. After washing 5 times, TMB solution (KPL) was added to the wells, and upon confirmation of modest coloring, an equal amount of quenching solution (2 N H₂SO₄, Wako Pure Chemicals) was added to the wells, and absorbance at 450 nm and 650 nm were read by a microplate reader (PerkinElmer).
as §1, with “domain 1-MBP-His” for “domain 1-NBP-His”, “antibody B” for “antibody A”, “peroxidase-labeled rabbit anti-human” for “peroxidase-labeled goat anti-mouse”, “IgG Fey” for “IgG Fcγ”, “hour.” for “hour. After washing 5 times, TMB solution (KPL) was added to the wells, and upon confirmation of modest coloring, an equal amount of quenching solution (2 N H₂SO₄, Wako Pure Chemicals) was added to the wells, and absorbance at 450 nm and 650 nm were read by a microplate reader (PerkinElmer).”

[3] = target: T3, human EphA4 fibronectin type III domain 1-MBP-His protein (human, UniProt P54764 205-440); assay: as above
T3 construct: also called fibronectin type III domain 1 (FN1); not shown: histidine tag
Procedure: as §1
as §1, with “domain 1-MBP-His” for “domain 1-NBP-His”, “antibody B” for “antibody A”, “peroxidase-labeled rabbit anti-human” for “peroxidase-labeled goat anti-mouse”, “IgG Fey” for “IgG Fcγ”, “hour.” for “hour. After washing 5 times, TMB solution (KPL) was added to the wells, and upon confirmation of modest coloring, an equal amount of quenching solution (2 N H₂SO₄, Wako Pure Chemicals) was added to the wells, and absorbance at 450 nm and 650 nm were read by a microplate reader (PerkinElmer).”

[4] = target: T1, human EphA4 extracellular …; assay: competition ELISA; captured human EphA4 extracellular region-SEAP-His, competitor biotinylated human EphrinA5-Fc chimera (0.7 nM)
Procedure: Anti-alkaline phosphatase antibodies (Thermo […]) were coated onto the wells of a 96-well plate (Nuns). After incubating at 4° C. overnight, the wells were blocked at room temperature for 1 hour by 1% Block Ace (DS Pharma Biomedical). After washing 3 times with 0.05% Tween 20/PBS (Thermo […]), human EphA4 extracellular region-SEAP-His protein was added to the wells (final concentration 10 nM), and incubated at room temperature for 1 hour. After washing 3 times, the ligand and serially diluted antibody A (0, 0.003, 0.01, 0.03, 0.1, 0.3, 1, 3, 10, 30, 100, 300, 1000, 3000 nM) were supplemented to the wells. Note that biotinylated human EphrinA5-Fc chimera (R&D Systems, final concentration 0.7 nM) and biotinylated human EphrinB3-Fc chimera (R&D Systems, final concentration 2.3 nM) were employed as ligands. After incubating at room temperature for 1 hour and washing 3 times, horseradish peroxidase-labeled streptavidin (GE Healthcare) was added, and incubated at room, temperature for 1 hour. After washing 3 times, TMBZ (3,3′,5,5 ′-tetramethylbenzidine, Sigma) solution was added to the wells, and incubated at room temperature for 2-5minutes. An equal amount of quenching solution (1 N H₂SO₄, Wako Pure Chemicals) was added to the wells, and absorbance at 450 nm was read by a microplate reader (Molecular Devices or PerkinElmer). […]

T1 sequence (P54764 20-547): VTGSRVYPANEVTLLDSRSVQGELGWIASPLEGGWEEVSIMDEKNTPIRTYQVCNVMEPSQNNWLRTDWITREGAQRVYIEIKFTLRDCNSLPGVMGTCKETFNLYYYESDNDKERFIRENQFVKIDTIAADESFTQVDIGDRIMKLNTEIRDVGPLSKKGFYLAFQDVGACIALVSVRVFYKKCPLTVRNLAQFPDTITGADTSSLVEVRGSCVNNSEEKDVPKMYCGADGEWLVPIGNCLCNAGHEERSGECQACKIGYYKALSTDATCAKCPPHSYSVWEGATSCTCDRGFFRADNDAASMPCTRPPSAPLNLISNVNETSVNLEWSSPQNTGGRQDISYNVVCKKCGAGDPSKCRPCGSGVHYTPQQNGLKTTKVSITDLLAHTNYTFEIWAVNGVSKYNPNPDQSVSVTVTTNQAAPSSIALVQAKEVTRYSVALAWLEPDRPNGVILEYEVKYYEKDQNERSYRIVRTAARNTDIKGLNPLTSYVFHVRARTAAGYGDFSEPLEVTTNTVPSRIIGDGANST
T2 sequence (P54764 436-547 limits assumed): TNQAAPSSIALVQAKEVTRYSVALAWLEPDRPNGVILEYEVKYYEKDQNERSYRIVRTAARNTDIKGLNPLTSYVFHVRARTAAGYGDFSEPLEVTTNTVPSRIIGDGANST
T3 sequence (P54764 205-440 limits assumed): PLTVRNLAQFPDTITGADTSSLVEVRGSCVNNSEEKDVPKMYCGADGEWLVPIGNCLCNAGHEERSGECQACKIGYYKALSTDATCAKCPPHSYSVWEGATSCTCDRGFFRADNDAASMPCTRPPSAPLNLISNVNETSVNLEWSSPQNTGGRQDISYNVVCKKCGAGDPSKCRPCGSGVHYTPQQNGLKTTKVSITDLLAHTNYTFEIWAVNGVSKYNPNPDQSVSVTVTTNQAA

Binder | IC50 [1] | binding result [2] | binding result [3] | IC50 [4]
B1 | ~1.4 nM | no binding (tested: 10 nM) | no binding (tested: 10 nM) | ~2.8 nM
B2 | ~1.6 nM | no binding (tested: 10 nM) | no binding (tested: 10 nM) | ~4.9 nM
